Test results as given in paper PMC9482650, “Quantitative fragmentomics allow affinity mapping of interactomes” (Nature Communications, 2022).

T1: APBA2_1, Q99767
T1 sequence (Q99767 563-664, limits assumed, looked up): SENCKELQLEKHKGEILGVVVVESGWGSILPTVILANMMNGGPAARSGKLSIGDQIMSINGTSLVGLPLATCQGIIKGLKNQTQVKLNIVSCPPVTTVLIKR

T2: DFNB31_3, Q9P202
T2 sequence (Q9P202 811-907, limits assumed, looked up): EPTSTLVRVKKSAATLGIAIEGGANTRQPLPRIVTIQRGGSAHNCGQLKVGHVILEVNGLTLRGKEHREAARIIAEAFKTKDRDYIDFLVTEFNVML

T3: DLG3_3, Q92796
T3 sequence (Q92796 374-475, limits assumed, looked up): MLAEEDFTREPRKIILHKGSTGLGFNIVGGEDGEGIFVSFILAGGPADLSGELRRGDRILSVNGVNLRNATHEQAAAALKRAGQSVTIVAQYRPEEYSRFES

T4: FRMPD1, Q5SYB0
T4 sequence (Q5SYB0 52-145, limits assumed, looked up): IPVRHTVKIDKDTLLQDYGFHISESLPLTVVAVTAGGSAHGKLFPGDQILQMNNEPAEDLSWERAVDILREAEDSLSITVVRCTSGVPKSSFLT

T5: GRIP1_2, Q9Y3R0
T5 sequence (Q9Y3R0 145-248, limits assumed, looked up): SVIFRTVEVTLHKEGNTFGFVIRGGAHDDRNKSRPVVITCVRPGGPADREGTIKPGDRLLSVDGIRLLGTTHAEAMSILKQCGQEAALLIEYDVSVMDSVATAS

T6: LNX2_3, Q8N448
T6 sequence (Q8N448 463-564, limits assumed, looked up): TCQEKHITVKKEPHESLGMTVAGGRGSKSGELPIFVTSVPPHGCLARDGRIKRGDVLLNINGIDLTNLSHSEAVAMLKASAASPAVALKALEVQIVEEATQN

T7: MPDZ_12, O75970
T7 sequence (O75970 1857-1958, limits assumed, looked up): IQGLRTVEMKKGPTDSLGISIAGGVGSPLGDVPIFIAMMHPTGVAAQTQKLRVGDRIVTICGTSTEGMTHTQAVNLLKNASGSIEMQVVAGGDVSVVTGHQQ

T8: MPDZ_5, O75970
T8 sequence (O75970 695-796, limits assumed, looked up): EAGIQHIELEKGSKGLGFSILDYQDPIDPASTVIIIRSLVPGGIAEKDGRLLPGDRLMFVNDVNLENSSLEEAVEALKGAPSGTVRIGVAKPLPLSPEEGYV

T9: PDZD2_2, O15018
T9 sequence (O15018 329-429, limits assumed, looked up): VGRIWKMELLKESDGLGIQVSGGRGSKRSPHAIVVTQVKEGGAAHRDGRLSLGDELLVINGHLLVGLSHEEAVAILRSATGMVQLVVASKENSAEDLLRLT

T10: PTPN13_1, Q12923
T10 sequence (Q12923 1088-1188, limits assumed, looked up): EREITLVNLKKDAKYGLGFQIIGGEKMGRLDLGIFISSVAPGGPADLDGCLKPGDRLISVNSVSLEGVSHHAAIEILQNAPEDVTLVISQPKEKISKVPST

T11: RAPGEF6, Q8TEU7
T11 sequence (Q8TEU7 525-625, limits assumed, looked up): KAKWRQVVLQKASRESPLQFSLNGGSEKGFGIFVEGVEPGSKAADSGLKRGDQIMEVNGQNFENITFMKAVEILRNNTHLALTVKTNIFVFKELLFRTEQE

T12: RHPN1, Q8TCX5
T12 sequence (Q8TCX5 508-602, limits assumed, looked up): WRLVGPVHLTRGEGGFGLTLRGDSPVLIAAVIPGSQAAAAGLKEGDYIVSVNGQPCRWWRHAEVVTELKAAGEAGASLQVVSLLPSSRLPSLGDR


Experiments:
Assay in all cases: holdup assay
Set-up in all cases: key: below the threshold = too weak to quantify, mostly under pKd 3.1 to 4
Conditions in all cases: plain residues with an end cap or a label only (N-terminal biotin on a linker: ado-ado)
AHNAK1, Q09666 = target: AHNAK1, Q09666
APBA2_1, Q99767 = target: T1, APBA2_1, Q99767
DFNB31_3, Q9P202 = target: T2, DFNB31_3, Q9P202
DLG2_2, Q15700 = target: DLG2_2, Q15700
DLG3_3, Q92796 = target: T3, DLG3_3, Q92796
FRMPD1, Q5SYB0 = target: T4, FRMPD1, Q5SYB0
FRMPD2_3, Q68DX3 = target: FRMPD2_3, Q68DX3
GRIP1_2, Q9Y3R0 = target: T5, GRIP1_2, Q9Y3R0
GRIP2_3, Q9C0E4 = target: GRIP2_3, Q9C0E4
GRIP2_7, Q9C0E4 = target: GRIP2_7, Q9C0E4
HTRA2, O43464 = target: HTRA2, O43464
Inadl_8, Q8NI35 = target: Inadl_8, Q8NI35
LNX1_2, Q8TBB1 = target: LNX1_2, Q8TBB1
LNX2_3, Q8N448 = target: T6, LNX2_3, Q8N448
MAGI2_2, Q86UL8 = target: MAGI2_2, Q86UL8
MPDZ_12, O75970 = target: T7, MPDZ_12, O75970
MPDZ_5, O75970 = target: T8, MPDZ_5, O75970
NHERF4_1, Q86UT5-2 = target: NHERF4_1, Q86UT5-2
NOS1, P29475 = target: NOS1, P29475
PDZD2_2, O15018 = target: T9, PDZD2_2, O15018
PTPN13_1, Q12923 = target: T10, PTPN13_1, Q12923
RAPGEF6, Q8TEU7 = target: T11, RAPGEF6, Q8TEU7
RHPN1, Q8TCX5 = target: T12, RHPN1, Q8TCX5
SNX27, Q96L92 = target: SNX27, Q96L92

Sequence of HTRA2, O43464 (O43464 355-458): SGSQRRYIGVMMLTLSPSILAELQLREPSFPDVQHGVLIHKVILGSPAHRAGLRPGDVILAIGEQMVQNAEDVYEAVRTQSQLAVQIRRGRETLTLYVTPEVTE
Sequence of AHNAK1, Q09666 (Q09666 4-100): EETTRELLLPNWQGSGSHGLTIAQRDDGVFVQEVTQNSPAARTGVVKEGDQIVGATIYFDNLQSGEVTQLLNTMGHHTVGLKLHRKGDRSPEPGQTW
Sequence of MAGI2_2, Q86UL8 (Q86UL8 410-522): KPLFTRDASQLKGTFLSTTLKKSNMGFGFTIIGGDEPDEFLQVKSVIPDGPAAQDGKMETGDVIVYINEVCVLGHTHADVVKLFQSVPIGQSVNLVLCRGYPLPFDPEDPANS
Sequence of Inadl_8, Q8NI35 (Q8NI35 1425-1530): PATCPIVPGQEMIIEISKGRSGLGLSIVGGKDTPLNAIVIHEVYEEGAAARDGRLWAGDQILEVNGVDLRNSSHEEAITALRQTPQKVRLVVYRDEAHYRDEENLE
Sequence of GRIP2_7, Q9C0E4 (Q9C0E4 934-1023): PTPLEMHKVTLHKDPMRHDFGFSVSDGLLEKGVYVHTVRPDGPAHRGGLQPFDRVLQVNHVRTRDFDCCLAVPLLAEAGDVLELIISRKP
Sequence of FRMPD2_3, Q68DX3 (Q68DX3 1073-1166): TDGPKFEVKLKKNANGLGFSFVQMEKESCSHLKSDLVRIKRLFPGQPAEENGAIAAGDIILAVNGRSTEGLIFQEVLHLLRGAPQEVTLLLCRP
Sequence of LNX1_2, Q8TBB1 (Q8TBB1 371-470): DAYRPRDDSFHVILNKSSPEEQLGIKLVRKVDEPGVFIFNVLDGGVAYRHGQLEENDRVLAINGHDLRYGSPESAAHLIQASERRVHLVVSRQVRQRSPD
Sequence of GRIP2_3, Q9C0E4 (Q9C0E4 238-339): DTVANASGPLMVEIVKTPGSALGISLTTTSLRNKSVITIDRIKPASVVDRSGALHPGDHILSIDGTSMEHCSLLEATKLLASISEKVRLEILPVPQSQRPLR
Sequence of DLG2_2, Q15700 (Q15700 189-283): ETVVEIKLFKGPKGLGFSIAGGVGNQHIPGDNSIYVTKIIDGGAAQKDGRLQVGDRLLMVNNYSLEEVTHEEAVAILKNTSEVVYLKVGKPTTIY
Sequence of NOS1, P29475 (P29475 9-101): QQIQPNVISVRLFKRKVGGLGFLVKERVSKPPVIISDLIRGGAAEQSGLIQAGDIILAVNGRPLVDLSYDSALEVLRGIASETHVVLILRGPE
Sequence of NHERF4_1, Q86UT5-2 (Q86UT5 other isoform, or with tags, fused parts or gaps): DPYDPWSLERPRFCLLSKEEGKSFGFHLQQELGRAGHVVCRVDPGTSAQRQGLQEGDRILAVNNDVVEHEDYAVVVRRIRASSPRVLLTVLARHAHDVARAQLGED

| pKd (AHNAK1, Q09666) | pKd (APBA2_1, Q99767) | pKd (DFNB31_3, Q9P202) | pKd (DLG2_2, Q15700) | pKd (DLG3_3, Q92796) | pKd (FRMPD1, Q5SYB0) | pKd (FRMPD2_3, Q68DX3) | pKd (GRIP1_2, Q9Y3R0) | pKd (GRIP2_3, Q9C0E4) | pKd (GRIP2_7, Q9C0E4) | pKd (HTRA2, O43464) | pKd (Inadl_8, Q8NI35) | pKd (LNX1_2, Q8TBB1) | pKd (LNX2_3, Q8N448) | pKd (MAGI2_2, Q86UL8) | pKd (MPDZ_12, O75970) | pKd (MPDZ_5, O75970) | pKd (NHERF4_1, Q86UT5-2) | pKd (NOS1, P29475) | pKd (PDZD2_2, O15018) | Binder | further results |
| --- | --- | --- | --- | --- | --- | --- | --- | --- | --- | --- | --- | --- | --- | --- | --- | --- | --- | --- | --- | --- | --- |
| below the threshold | below the threshold | below the threshold | 4.04 | below the threshold | below the threshold | below the threshold | below the threshold | below the threshold | below the threshold | below the threshold | 4.94 | below the threshold | below the threshold | below the threshold | below the threshold | below the threshold | below the threshold | below the threshold | 5.74 | DDENIRTSDV [PLEKHA2, Q9HB19] | pKd (PTPN13_1, Q12923): below the threshold; pKd (RAPGEF6, Q8TEU7): below the threshold; pKd (RHPN1, Q8TCX5): 3.92; pKd (SNX27, Q96L92): 4.84 |
| below the threshold | below the threshold | 4 | below the threshold | below the threshold | below the threshold | below the threshold | below the threshold | below the threshold | below the threshold | below the threshold | below the threshold | below the threshold | below the threshold | below the threshold | below the threshold | below the threshold | 3.97 | below the threshold | 4.49 | TSQESEDTYL [TBC1D10A, Q9BXI6] | pKd (PTPN13_1, Q12923): below the threshold; pKd (RAPGEF6, Q8TEU7): below the threshold; pKd (RHPN1, Q8TCX5): 4.45; pKd (SNX27, Q96L92): 5.27 |

Further lines, the binder ahead of its results:

| Binder | pKd (AHNAK1, Q09666) | pKd (APBA2_1, Q99767) | pKd (DFNB31_3, Q9P202) | pKd (DLG2_2, Q15700) | pKd (DLG3_3, Q92796) | pKd (FRMPD1, Q5SYB0) | pKd (FRMPD2_3, Q68DX3) | pKd (GRIP1_2, Q9Y3R0) | pKd (GRIP2_3, Q9C0E4) | pKd (GRIP2_7, Q9C0E4) | pKd (HTRA2, O43464) | pKd (Inadl_8, Q8NI35) | pKd (LNX1_2, Q8TBB1) | pKd (LNX2_3, Q8N448) | pKd (MAGI2_2, Q86UL8) | pKd (MPDZ_12, O75970) | pKd (MPDZ_5, O75970) | pKd (NHERF4_1, Q86UT5-2) | pKd (NOS1, P29475) | pKd (PDZD2_2, O15018) | further results |
| --- | --- | --- | --- | --- | --- | --- | --- | --- | --- | --- | --- | --- | --- | --- | --- | --- | --- | --- | --- | --- | --- |
| HSGYRLNDYV [CLDN14, O95500] | below the threshold | below the threshold | below the threshold | below the threshold | below the threshold | below the threshold | below the threshold | below the threshold | below the threshold | below the threshold | 3.74 | 3.87 | 3.61 | below the threshold | below the threshold | below the threshold | below the threshold | 3.57 | 4.21 | 4.79 | pKd (PTPN13_1, Q12923): below the threshold; pKd (RAPGEF6, Q8TEU7): below the threshold; pKd (RHPN1, Q8TCX5): below the threshold; pKd (SNX27, Q96L92): 3.72 |
| PEYLGLDVPV [ERBB2, P04626] | below the threshold | below the threshold | below the threshold | below the threshold | below the threshold | below the threshold | below the threshold | below the threshold | below the threshold | below the threshold | below the threshold | below the threshold | below the threshold | below the threshold | below the threshold | below the threshold | below the threshold | below the threshold | 3.9 | below the threshold | pKd (PTPN13_1, Q12923): below the threshold; pKd (RAPGEF6, Q8TEU7): below the threshold; pKd (RHPN1, Q8TCX5): below the threshold; pKd (SNX27, Q96L92): 3.94 |
| KKMPSIESDV [GRIN2A, Q12879] | below the threshold | below the threshold | below the threshold | 5.04 | below the threshold | below the threshold | below the threshold | below the threshold | below the threshold | below the threshold | below the threshold | 3.76 | below the threshold | below the threshold | 4.05 | below the threshold | below the threshold | below the threshold | below the threshold | 4.91 | pKd (PTPN13_1, Q12923): below the threshold; pKd (RAPGEF6, Q8TEU7): below the threshold; pKd (RHPN1, Q8TCX5): 3.83; pKd (SNX27, Q96L92): 3.64 |
| AKPSRISTVV [IQSEC2, Q5JU85] | below the threshold | below the threshold | below the threshold | 5.21 | 4.18 | below the threshold | below the threshold | below the threshold | below the threshold | below the threshold | below the threshold | 3.89 | 3.52 | below the threshold | 5.23 | 3.49 | below the threshold | 3.48 | 3.65 | 4.29 | pKd (PTPN13_1, Q12923): below the threshold; pKd (RAPGEF6, Q8TEU7): below the threshold; pKd (RHPN1, Q8TCX5): below the threshold; pKd (SNX27, Q96L92): 3.98 |
